We go through one substance from patent US20250186597A1, “TARGETED IMMUNE ACTIVATION WITH IL-18 IMMUNOCYTOKINES” (BRIGHT PEAK THERAPEUTICS AG, priority 2023, published 2025).

The target in assay [1] is T1, human Fc gamma receptors IIb (FcγRIIb/CD32b) (Homo sapiens, UniProt P31994).
T1 construct: purchased R&D systems AVI1875-050
T1 sequence (P31994 43-310): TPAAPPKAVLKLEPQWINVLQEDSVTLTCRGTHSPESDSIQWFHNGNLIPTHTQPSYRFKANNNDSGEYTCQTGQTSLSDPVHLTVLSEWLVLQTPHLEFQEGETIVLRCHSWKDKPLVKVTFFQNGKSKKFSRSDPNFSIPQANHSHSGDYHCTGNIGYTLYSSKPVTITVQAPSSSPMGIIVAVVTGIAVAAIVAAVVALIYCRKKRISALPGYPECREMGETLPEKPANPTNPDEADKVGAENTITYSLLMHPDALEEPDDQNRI
Kind of assay: Human FcγR binding ELISA, FcγRIIb/CD32b (Example 8). Particulars: ELISA binding affinity. As to the method:
(§1) The interaction of the unmodified and of conjugated antibodies with human Fc gamma receptors I (FcγRI/CD64), with human Fc gamma receptors IIa (FcγRIIa/CD32a), with inhibitory human Fc gamma receptors IIb (FcγRIIb/CD32b), and with human Fc gamma receptors III FcγRIIIa/CD16 were measured by ELISA.
(§2) Briefly, Corning high-binding half-area plates (Fisher Scientific, Reinach, Switzerland) were coated overnight at 4° C. with 25 μl of unmodified and of conjugated anti-PD1 antibodies at 2.5 μg/ml in PBS. […] Plates surfaces were blocked with 25 μl of PBS-0.02% Tween20-1% BSA at 37° C. during 1 h. […] Twenty-five microliters of a 1/500 HRP-anti-His antibody in PBS—0.02% Tween20—0.1% BSA (R&D systems, anti-HIS—HRP Ab, #MAB050H) were added to each well and plates were incubated at Room Temperature during 1 h. […] ELISA signal was then measured at 450 nm on an EnSpire plate reader from Perkin Elmer (Schwerzenbach, Switzerland).

Assay [2] addresses T2, human Fc gamma receptors I (FcγRI/CD64) (Homo sapiens, UniProt P12314).
T2 construct: purchased R&D systems 1257-FC-050
Kind of assay: Human FcγR binding ELISA, FcγRI/CD64 (Example 8). Particulars: ELISA binding affinity. The procedure:
as §1, §2

The target in assay [3] is T3, human Fc gamma receptors III FcγRIIIa/CD16 (Homo sapiens, UniProt P08637).
T3 construct: purchased R&D systems 4325-FC-050
Put plainly: Human FcγR binding ELISA, FcγRIIIa/CD16 (Example 8). Particulars: ELISA binding affinity. As to the method:
as §1, §2

The target in assay [4] is T4, human Fc gamma receptors IIa (FcγRIIa/CD32a) (Homo sapiens, UniProt P12318).
T4 construct: purchased R&D systems 9595-CD-050
T4 sequence (P12318 34-317): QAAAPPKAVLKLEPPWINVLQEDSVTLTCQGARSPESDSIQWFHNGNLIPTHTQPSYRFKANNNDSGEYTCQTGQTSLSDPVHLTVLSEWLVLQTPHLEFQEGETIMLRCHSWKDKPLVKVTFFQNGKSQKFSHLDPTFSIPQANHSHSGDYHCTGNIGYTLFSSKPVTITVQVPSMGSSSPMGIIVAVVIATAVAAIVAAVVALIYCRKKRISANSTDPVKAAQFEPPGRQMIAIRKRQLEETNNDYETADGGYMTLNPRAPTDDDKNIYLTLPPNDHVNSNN
Put plainly: Human FcγR binding ELISA, FcγRIIa/CD32a (Example 8). Particulars: ELISA binding affinity. The procedure: as §1, §2

Assay [5] addresses T5, human neonatal Fc receptor (FcRn) (Homo sapiens, UniProt P55899).
T5 construct: purchased Perkin Elmer AL3095C
Put plainly: Human FcRn binding AlphaLISA at pH 6 (Example 9). As to the method:
The interaction of the unmodified and of conjugated anti-PD1 antibodies with the human neonatal Fc receptor (FcRn) at pH 6 was measured using the AlphaLISA® Human FcRn Binding Kit (AL3095C) from Perkin Elmer (Schwerzenbach, Switzerland). […] When reference IgG binds to FcRn, donor and acceptor beads come into proximity enabling the transfer of singlet oxygen that trigger a cascade of energy transfer reactions in the acceptor beads, resulting in a sharp peak of light emission at 615 nm. Addition of a free IgG antibodies into the AlphaLISA® mixture creates a competition for the binding of FcRn to the reference antibody resulting in a loss of signal.
After 90 min at 23° C. in the dark, AlphaLISA® signal was measured on an EnSpire plate reader (Excitation at 680 nm, Emission at 615 nm) from Perkin Elmer (Schwerzenbach, Switzerland).

Assay [6] deals with T6, human PD-L1/B7-H1 (Homo sapiens, UniProt Q9NZQ7).
T6 construct: purchased ACROBiosystems PD1-H82E5-25UG
Put plainly: PD-L1 binding ELISA assay (Example 5). Particulars: biotinylated human PD-L1. As to the method:
The interaction of the unmodified antibodies and corresponding IL-18 immunocytokines with relevant immune cell associated antigen are measured by ELISA assay. For these studies, Corning high-binding half-area plates (Fisher Scientific, Reinach, Switzerland) are coated overnight at 4° C. with 25 μl of unmodified antibodies corresponding IL-18 immunocytokines at […] in PBS. […] Plate surfaces are blocked with 25 μl of PBS-0.02% Tween20-1% BSA at 37° C. during 1 h. […] ELISA signal is then measured at 450 nm on an ENSPIRE® plate reader from Perkin Elmer (Schwerzenbach, Switzerland).

For assay [7], the target named is T7, human PD1 (Homo sapiens, UniProt Q15116).
T7 construct: purchased R&D #8986-PD
Put plainly: Binding kinetics to PD-1 by Bio-Layer Interferometry (Example 6). Particulars: BLI, His-tagged human PD1. An excerpt: Based on Bio-Layer Interferometry (BLI), Octet® BLI systems enable real-time, label-free analysis for the determination of kinetics and affinity of a ligands to its receptor. Here anti-human IgG FC Capture (AHC) sensors are loaded with the test items (ICs). Sensors are first dipped into a kinetic buffer for baseline measurement, then into an analyte solution, here human PD1, to allow association and again into a buffer solution where the analyte is allowed to come off the ligand (dissociation). Several concentrations of analyte are run in parallel and enable the calculation of affinity parameters: Ka, Kd, KD.
Typically, first, the sensors are regenerated by 3 cycles of dipping into 10 mM glycine solution at pH=2 for 20 seconds, followed by 20 second kinetics buffer and a final 60 seconds in kinetics buffer to establish the initial signal (baseline). Second, the loading column will contain the ligand, here the unmodified PD-1 antibodies and of IL-18 polypeptide conjugated PD-1 antibody, at a fixed concentration determined in the loading scout experiment (20 ug/mL). Then another wash/baseline step allows non immobilized proteins to be washed away. […] After acquisition, the data is analyzed with Data Analysis Studio software (Sartorius). […] Group fitting is then applied to the data series and kinetics parameters are calculated.

T7 sequence (Q15116 25-288): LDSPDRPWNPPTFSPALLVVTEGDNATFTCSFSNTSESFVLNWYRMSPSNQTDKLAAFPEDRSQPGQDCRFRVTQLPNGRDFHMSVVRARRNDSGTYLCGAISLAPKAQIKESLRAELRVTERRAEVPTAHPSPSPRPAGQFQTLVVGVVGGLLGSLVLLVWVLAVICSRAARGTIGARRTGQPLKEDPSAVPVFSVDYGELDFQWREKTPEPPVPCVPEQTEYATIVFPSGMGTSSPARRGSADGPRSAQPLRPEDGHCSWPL
T6 sequence (Q9NZQ7 19-290): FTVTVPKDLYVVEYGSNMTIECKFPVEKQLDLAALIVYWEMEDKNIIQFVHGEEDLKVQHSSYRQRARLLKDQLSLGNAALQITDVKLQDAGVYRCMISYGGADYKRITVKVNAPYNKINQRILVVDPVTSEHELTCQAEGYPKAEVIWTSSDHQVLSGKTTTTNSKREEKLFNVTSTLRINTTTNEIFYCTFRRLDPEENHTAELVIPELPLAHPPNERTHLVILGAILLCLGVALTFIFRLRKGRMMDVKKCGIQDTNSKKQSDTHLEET
T2 sequence (P12314 16-374): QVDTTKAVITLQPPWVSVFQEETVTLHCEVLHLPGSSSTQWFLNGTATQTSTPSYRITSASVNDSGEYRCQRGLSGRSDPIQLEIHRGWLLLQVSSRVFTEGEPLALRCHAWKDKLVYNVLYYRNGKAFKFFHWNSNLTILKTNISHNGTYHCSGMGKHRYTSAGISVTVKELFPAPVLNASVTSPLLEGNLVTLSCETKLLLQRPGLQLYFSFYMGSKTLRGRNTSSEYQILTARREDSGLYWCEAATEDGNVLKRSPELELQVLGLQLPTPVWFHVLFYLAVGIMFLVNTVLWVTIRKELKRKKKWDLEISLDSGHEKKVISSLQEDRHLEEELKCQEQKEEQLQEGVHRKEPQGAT
T5 sequence (P55899 24-297 limits assumed): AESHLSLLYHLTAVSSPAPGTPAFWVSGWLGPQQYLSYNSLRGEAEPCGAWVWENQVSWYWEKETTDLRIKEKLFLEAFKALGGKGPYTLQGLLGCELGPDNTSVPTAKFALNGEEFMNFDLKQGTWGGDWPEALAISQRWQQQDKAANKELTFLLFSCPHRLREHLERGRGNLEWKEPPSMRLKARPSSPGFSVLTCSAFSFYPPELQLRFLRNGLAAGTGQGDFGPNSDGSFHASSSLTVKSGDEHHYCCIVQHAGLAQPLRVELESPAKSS
T5 sequence (P61769 21-119 partner): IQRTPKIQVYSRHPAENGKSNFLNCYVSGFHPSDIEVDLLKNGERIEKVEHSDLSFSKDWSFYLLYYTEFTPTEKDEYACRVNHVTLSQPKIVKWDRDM
T3 sequence (P08637 17-254): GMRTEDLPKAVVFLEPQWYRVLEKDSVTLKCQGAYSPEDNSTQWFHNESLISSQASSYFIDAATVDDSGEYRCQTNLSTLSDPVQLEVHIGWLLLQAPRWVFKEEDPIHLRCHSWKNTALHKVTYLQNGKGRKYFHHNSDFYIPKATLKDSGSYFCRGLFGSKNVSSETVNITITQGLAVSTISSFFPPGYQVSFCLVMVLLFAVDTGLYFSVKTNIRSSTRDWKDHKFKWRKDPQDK

As for “LZM-009: anti-PD-1 antibody, VH SEQ ID NO: 376, VL SEQ ID NO: 377 [reference compound]”, the Kd in assay [1] is 2.63 µM; in assay [2] it was 0.000315 µM; in assay [3] it was 1.71 µM; in assay [4], 1.35 µM; in assay [5], 0.006 µM; in assay [6], > 0.1 µM. Besides, the ka in assay [7] was 342000 M⁻¹ s⁻¹. For the same substance, the kd in assay [7] is 0.0077 s⁻¹.
